Experimental data taken from the supplement of paper PMC9170038.

Tested on: MS2 coat protein
Assay: apparent KD of MS2 coat protein; designed switch direction (-1 OFF switch, 1 ON switch): -1; higher = weaker reporter binding
Procedure, shortened: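 On Illumina chips, designed RNA switches with common flanks were made by stalled E. coli RNA polymerase. Titrations with SNAP-549-labelled MS2 coat protein, doubling from 0.7 or 1.5 nM to 3 µM, were done with no input, with 200 uM small-molecule ligand, or with an oligonucleotide input. Apparent KD is the median per design over clusters, from curve fits of normalised cluster fluorescence.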

[1] = Eterna round: R95, input ligand: microRNA oligo, concentration not stated
[2] = input ligand: microRNA oligo, concentration not stated
[3] = Eterna round: R95, input ligand: FMN 200 uM
[4] = Eterna round: R95, input ligand: none

| Sequence | apparent KD of MS2 coat protein (input ligand: FMN 200 uM) [nM] | apparent KD of MS2 coat protein (input ligand: none) [nM] | apparent KD of MS2 coat protein [1] [nM] | apparent KD of MS2 coat protein [2] [nM] | also measured |
| --- | --- | --- | --- | --- | --- |
| GUGUUGUCAGGAUAUCUUACAUAACUAUCGUUGUUACCAUUGGAGAAGGGACAUGAGGAUCACCCAUGUUUUCG [tap-tap-tappy50] (Eterna round: R97, puzzle: Exclusion 4) | 23.9 | 24.6 | – | – | – |
| AGUUGGCGAGGAUAUACAUGAGGAUCACCCAUGUGAAAUAUAAUAGUGAGGAAGAAAAGUAGAAGGCGCUGACA [Mat - Exclusion 3 - Mod of Salish D42] (puzzle: Exclusion 3) | – | – | 42.7 | – | – |
| ACCUCACAUGAGGAUCACCCAUGUCAGGAUAUCUAAUAUUGCAGCGUUCCCGACGCUGAGAGAAGGGACAUUAA [EX1 #30] (Eterna round: R97, puzzle: Exclusion 1) | 29.6 | 17.7 | – | – | – |
| AUUAUACAUGUAGGAUAUCUGCACGUUUAGUGCAGAGAAGGACAUGAGGAUCACCCAUGUAGAUCAAUAAUAAUUAAUUUAAUU [ENG1/6-B2] (Eterna round: R96, puzzle: Exclusion NG 1) | 889 | 202 | – | 203 | – |
| UACAGUCAUCCUUGUUGUUACAUGAGGAUCACCCAUGUUAGUAUAAUUAAGUUAUGUAAGUUUGUUGUUCGUUUUAU [JR_STOV1_v2_Sub076] (Eterna round: R97, puzzle: Sensor, turn-off variant 1) | 94.2 | 101 | – | – | – |
| ACAUGAGGAUCACCCAUGUUCGGCUGGUCCGUCUCGGCUGUCGAGGAUAUAGCUCGGUGUCCGCGCUAGAAGGCGGGAGCUGGC [Aenatbe mod 66] (Eterna round: R96, puzzle: Exclusion NG 3) | 106 | 90 | – | 47 | – |
| UUUCUCGUUGUGAGGAUAUCGUUUUUGUCUCGGAUCGAGAAGGCACAUGAGGAUCACCCAUGUUUGUUGUGGUU [JR_BMOE4_Sub089] (puzzle: Brourd's mod of Exclusion 4) | – | – | 74.9 | – | – |
| CCAGGCAGUGUGAGGAUAUGCUGGUGCUUGCAUCAGCAGAAGGCACAUGAGGAUCACCCAUGUGAAGAGCUUGG [Mat - Exclusion 4 - JL Mod - D97] (puzzle: Brourd's mod of Exclusion 4) | – | – | 21.1 | – | – |
| AAACUGAGGCAAAGCUUUAGUCGUACAUGAGGAUCACCCAUGUAGGAUAUGGUAGGCUUUGCUUACCAGAAGGACAGAGUGAUC [Mat - Exclusion NG 3 - Mod of JL - D56] (Eterna round: R96, puzzle: Exclusion NG 3) | 235 | 110 | – | 103 | – |
| GUCACGUAAGGAUAUCAUUAGUUGGACAUGAGGAUCACCCAUGUGAGACUAACUCCGGCGUGAGAAGGUGCGUUAA [Arorza] (puzzle: Exclusion 5) | – | – | 12 | – | – |
| AGUCGAAAGACAAAAACAGACAUGAGGAUCACCCAUGUAAAGGGUGAACAAGCCACCCGCUCGUCUUAAAAAAAAAA [Mat - Sensor v2 - JL mod - D25] (Eterna round: R96, puzzle: Sensor v2, turn-off variant) | 136 | 114 | – | 69.2 | – |
| AGUCAGGCGGUAGGAUAUCCAUAUCGAGUGACCCUUUCAUAACAUGAGGAUCACCCAUGUCGGUGGGAGAAGGGCCGUACGGCG [JL ViennaUCT Atra mod 4] (Eterna round: R96, puzzle: Exclusion NG 2) | 203 | 103 | – | 84.2 | – |
| UUGUUAUAUGAAGGAUAUACUUAACAUGAGGAUCACCCAUGUGGUGUUGUGAGUGAGUGAGUUUAGUAGAAGGUCAAUUAUUUU [JMF's solution 29] (Eterna round: R96, puzzle: Exclusion NG 2) | 1340 | 492 | – | 380 | – |
| GGACGGAAAGUGAGGAUAUGCUCUACCUCGGUAGAGCAGAAGGCACAUGAGGAUCACCCAUGUGAAAACUGUUC [Omei Ex4B B30] (Eterna round: R97, puzzle: Brourd's mod of Exclusion 4) | 27.9 | 15.2 | – | – | – |
| CUUCGUAUAGAGGAUAUAGGAUACGAAAGUGUCCUAGAAGGCUGUACAUGAGGAUCACCCAUGUACUUCAGAUC [Exclusion 6 - B - 14:e] (puzzle: Exclusion 6) | – | – | 11.7 | – | – |
| GGAUCACGAGGAUAUCGAUUUUAGUACAUGAGGAUCACCCAUGUUGUCCAGGUCUCGAUUCGAGAAGGCGUGAUUC [LRO-Ex5-05] (puzzle: Exclusion 5) | – | – | 34.5 | – | – |
| GAGUAGUAAGGAUAUGUCUCUGGUGGCUACGGUCACUAGAGGCAGAAGGUACAUGAGGAUCACCCAUGUUUCUC [ExDelusion 9 - Jieux - Exclusion 4] (Eterna round: R97, puzzle: Exclusion 4) | 83.1 | 39.2 | – | – | – |
| UUUUAACAUGAGGAUCACCCAUGUGAGGAUAUCGAAAUUUAUAUUAAUAUUUAUUAAUCGAGAAGGCACAUUUU [JMF 60] (puzzle: Exclusion 1) | – | – | 100 | – | – |

| Sequence | apparent KD of MS2 coat protein (input ligand: FMN 200 uM) [nM] | apparent KD of MS2 coat protein (input ligand: none) [nM] | apparent KD of MS2 coat protein [1] [nM] | apparent KD of MS2 coat protein [2] [nM] | also measured |
| --- | --- | --- | --- | --- | --- |
| AAUCCACAUGAGGAUCACCCAUGUGAGGAUAUGAUACUAUGUACUUCGGUACAUAGUAUCAGAAGGCACAAAGG [Ex1-3: 52] (puzzle: Exclusion 1) | – | – | 56 | – | – |
| GACUAGGCAGGAUAUACAUGAGGAUCACCCAUGUGUCUGCGUUGGGCACGUGAACACCGUAGAAGGGCCUUGAC [ChP 13.04.2015 #14] (Eterna round: R96, puzzle: Exclusion 3) | 36.4 | 20.2 | – | 16.2 | – |
| ACAAGAGCGGAAGGAUAUUUUACAUGAGGAUCACCCAUGUAAUAAAUGAGGAUCACGGAUGUAGUAAAGAAGGUCCGGAUAAGA [Ostracism 2 - Jieux - Exclusion NG 2] (Eterna round: R96, puzzle: Exclusion NG 2) | – | – | – | 18.4 | – |
| ACAUGAGGAUCACCCAUGUCUGGCUGGUCCGUCUCGGCUGUCGAGGAUAUGGCUCGGUGUCCGCGCUAGAAGGCGGGAGCUGGU [Aenatbe mod 79] (Eterna round: R96, puzzle: Exclusion NG 3) | 195 | 77.5 | – | 45 | – |
| AAGAAACAUGAGGAUCACCCAUGUGAGGAUAUGAACAAGAAAAGAAAAGAAAGAAGAAUCAGAAGGCACAAAGG [salish99-ex1_r3_047] (puzzle: Exclusion 1) | – | – | 49.2 | – | apparent KD of MS2 coat protein [3]: 102 nM; apparent KD of MS2 coat protein [4]: 84.7 nM |
| AGUCUGCUAGGAUAUACAUGAGGAUCACCCAUGUCUAUCAAAAGACUAUUAACCUGGUGUAGAAGGAGCUUGUA [Lasodiar] (puzzle: Exclusion 3) | – | – | 10.7 | – | – |
| AGUACUAACACGAACGUGUUAGUACAAUAAGCUUGUGAAACAUGAGGAUCACCCAUGUCCUCAUAAGCUCGUCUUAU [salish99_TOv2_r3_034] (puzzle: Sensor v3, turn-off variant 2) | – | – | 775 | – | apparent KD of MS2 coat protein [3]: 17.9 nM; apparent KD of MS2 coat protein [4]: 16.2 nM |
| AGUACUAACACGUAAGUGUUAGUACAAUAAGCUUGUGAAACAUGAGGAUCACCCAUGUCCUCAUAAGCUCGUCUUAU [salish99_TOv2_r3_025] (puzzle: Sensor v3, turn-off variant 2) | – | – | 659 | – | apparent KD of MS2 coat protein [3]: 17.9 nM; apparent KD of MS2 coat protein [4]: 15.4 nM |
| GACUAGGCAGGAUAUACAUGAGGAUCACCCAUGUGUCUGCGAUAGGCACGUGAUUACUGUAGAAGGGCCUUGAC [Exclusion 3 - mod of a parushev design] (puzzle: Exclusion 3) | – | – | 204 | – | – |
| AGUACUAACACGAAAGUGUUAGUACAAUAAGCUUGUAUUACAUGAGGAUCACCCAUGUCCUCAUAAGCUCGUCUUAU [Mat - Sensor v3 - Turn-off var 2 - D46] (puzzle: Sensor v3, turn-off variant 2) | – | – | 14 | – | apparent KD of MS2 coat protein [3]: 316 nM; apparent KD of MS2 coat protein [4]: 881 nM |
| AGAAGUAGGAACCGAUCCUACAUGAGGAUCACCCAUGUAGCAAGACGUGCACGCGAAGCUCGUCAGACUACCAGAUG [salish99_TOv1_r3_021] (puzzle: Sensor v3, turn-off variant 1) | – | – | 399 | – | apparent KD of MS2 coat protein [3]: 558 nM; apparent KD of MS2 coat protein [4]: 531 nM |
| UUAUUAAUUAAUAUUAUAAGAUCACAUGAGGAUCACCCAUGUCAGGAUAUCAGCUCGUGUAGAGCUGAGAAGGGACAAAUAAUA [ExNG3/15-B3] (Eterna round: R96, puzzle: Exclusion NG 3) | 576 | 306 | – | 451 | – |
| CGUGCGUAUGUGAGGAUAUGCUGGUCCUUGGAUCAGCAGAAGGCACAUGAGGAUCACCCAUGUGGUGUCGUACA [salish99_Bmod_Ex4_016] (puzzle: Brourd's mod of Exclusion 4) | – | – | 198 | – | – |
| CAGUACUGAGGAUAUACAUGAGGAUCACCCAUGUGUCCCAGCUAGGAUACUAGCAAAGGUAGAAGGCAGUACUG [Mat - Exclusion 3 - Eli Mod - D15] (Eterna round: R97, puzzle: Exclusion 3) | 945 | 39.2 | – | – | – |
| CCCUCACAUGAGGAUCACCCAUGUCAGGAUAUCUAGUCAGACAGUAUAGCACUGCUGAAGAGAAGGGACGUAAA [Labiusce] (puzzle: Exclusion 1) | – | – | 17 | – | – |
| GAUCAACAUGAGGAUCACCCAUGUGAGGAUAUGAUACUAUGUACUUCGGUACAUAGUAUCAGAAGGCACAUAAA [Ex1-3: 38] (puzzle: Exclusion 1) | – | – | 72.4 | – | – |
| GUACCAAUUGUAGGAUAUGGAUCCGAUUAGGAUCCAGAAGGACAUGAGGAUCACCCAUGUACAUGAGGAUCACCCAUUAGGUAC [Fiskers ExNg1 - 12] (Eterna round: R96, puzzle: Exclusion NG 1) | 53.2 | 46.1 | – | 30.9 | – |
